Here are results for 33 sequences from the supplement of paper PMC10724198.

The subject of the series is Saccharomyces cerevisiae. Description: protein stability index of tFT-peptide fusion (C-terminal peptide) (PSI (0-1 scale)); higher = more stable (slower turnover). The conditions noted are these: temperature: 30 C. The procedure:
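MPS profiling in S. cerevisiae of the yeast C-terminome library: the last 12 aa of each annotated ORF are fused to the C-terminus of a sfGFP-mCherry timer, after a GGGS linker. Cells are FACS-sorted into 8 mCherry/sfGFP bins and deep-sequenced. PSI runs from 0 (unstable) to 1 (stable); wild type and das1Δ backgrounds, two technical replicates each.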

Where [1] appears, read: genetic background: das1 deletion.

± gives the standard deviation of the averaged measurements.

As to KWIEYVEEFQNW [FRE5 C-terminal 12 aa], the protein stability index worked out at 0.7168 ± 0.00097 under setting [1] and 0.73 ± 0.016 (genetic background: wild type).

In the case of LAKGGADVKPKK [RDL2 C-terminal 12 aa], the protein stability index reads like this: under setting [1], 0.7071 ± 0.0016; (genetic background: wild type) 0.708 ± 0.033.

With LASALKELQDAA [YHR112C C-terminal 12 aa], the protein stability index reads like this: under setting [1], 0.691 ± 0.0097; (genetic background: wild type) 0.682 ± 0.031.

Consider “LASVRLSWYSII [YGR204C-A C-terminal 12 aa]”, for which the protein stability index was found to be 0.71 ± 0.021 under setting [1] and 0.277 ± 0.014 (genetic background: wild type).

Consider LDLVARTATLSN [NUP84 C-terminal 12 aa], for which the protein stability index amounted to 0.695 ± 0.014 under setting [1] and 0.713 ± 0.026 (genetic background: wild type).

LDNILADLELDV [YIL001W C-terminal 12 aa] came in with a protein stability index under setting [1] of 0.72202 ± 0.00032 and a protein stability index (genetic background: wild type) of 0.684 ± 0.046.

LDYLSSYINRRI [FLP1 C-terminal 12 aa] had a protein stability index under setting [1] of 0.7058 ± 0.00092 and a protein stability index (genetic background: wild type) of 0.6948 ± 0.0047.

Consider LEDEDVVTILKK [RBG1 C-terminal 12 aa], for which the protein stability index amounted to 0.705 ± 0.021 under setting [1] and 0.707 ± 0.0083 (genetic background: wild type).

As to LEKQEDYIDNLV [RPC37 C-terminal 12 aa], the protein stability index runs as follows: under setting [1], 0.697 ± 0.02; (genetic background: wild type) 0.73 ± 0.056.

With LFCNYITETVEN [ASH1 C-terminal 12 aa], the protein stability index by setting is: under setting [1], 0.694 ± 0.0018; (genetic background: wild type) 0.645 ± 0.095.

In the case of “LFSNVLSLSSNI [YGL007C-A C-terminal 12 aa]”, the protein stability index was found to be 0.7296 ± 0.0024 under setting [1] and 0.695 ± 0.016 (genetic background: wild type).

For LIGGVGLSIWKK [RTT10 C-terminal 12 aa], the protein stability index came to 0.7069 ± 0.0038 under setting [1] and 0.668 ± 0.032 (genetic background: wild type).

As to LIHASSVEQATA [MRPL4 C-terminal 12 aa], the protein stability index by setting is: under setting [1], 0.68 ± 0.016; (genetic background: wild type) 0.6986 ± 0.0057.

As to LILQRLKTSLKI [GFD1 C-terminal 12 aa], the protein stability index under setting [1] is 0.617 ± 0.024 and the protein stability index (genetic background: wild type) came out at 0.668 ± 0.03.

For LIWLTIIYQALT [IRC18 C-terminal 12 aa], the protein stability index came to 0.249 ± 0.015 under setting [1] and 0.269 ± 0.0048 (genetic background: wild type).

In the case of LKEFTQFCKDNS [MIX23 C-terminal 12 aa], the protein stability index was 0.724 ± 0.023 under setting [1] and 0.721 ± 0.025 (genetic background: wild type).

Consider LKFEPTQEIVES [ITR2 C-terminal 12 aa], for which the protein stability index under setting [1] is 0.7054 ± 0.002 and the protein stability index (genetic background: wild type) was determined as 0.677 ± 0.032.

In turn, LKFLEEKFPHDK [AIM17 C-terminal 12 aa] registered a protein stability index under setting [1] of 0.708 ± 0.02 and a protein stability index (genetic background: wild type) of 0.691 ± 0.03.

Consider “LKIKVHIYRMKR [YHL015W-A C-terminal 12 aa]”, for which the protein stability index stood at 0.597 ± 0.021 under setting [1] and 0.5995 ± 0.0016 (genetic background: wild type).

With LKKEKLQALPTP [PDP3 C-terminal 12 aa], the protein stability index is, setting by setting: under setting [1], 0.691 ± 0.00082; (genetic background: wild type) 0.675 ± 0.011.

As for LKLEQKIGELSK [CRN1 C-terminal 12 aa], the protein stability index reads like this: under setting [1], 0.679 ± 0.0071; (genetic background: wild type) 0.718 ± 0.097.

For LKNGDKPHMLKF [RPL6A C-terminal 12 aa], the protein stability index is 0.6789 ± 0.0021 under setting [1] and 0.72 ± 0.053 (genetic background: wild type).

LKQIEMISGFSL [ADF1 C-terminal 12 aa]: the protein stability index came out at 0.707 ± 0.012 under setting [1] and 0.683 ± 0.053 (genetic background: wild type).

On to “LKTTPCLTHWYN [YIR030W-A C-terminal 12 aa]”, for which the protein stability index is, setting by setting: under setting [1], 0.699 ± 0.022; (genetic background: wild type) 0.663 ± 0.033.

LLCRDSSREVGE [YBL113C C-terminal 12 aa] showed a protein stability index under setting [1] of 0.702 ± 0.022 and a protein stability index (genetic background: wild type) of 0.673 ± 0.014.

For LLEGIIIKLFLY [YDL011C C-terminal 12 aa], the protein stability index under setting [1] worked out at 0.423 ± 0.0049 and the protein stability index (genetic background: wild type) amounted to 0.174 ± 0.0066.

Take “LLGVGIAFYQDR [YJR112W-A C-terminal 12 aa]”: the protein stability index stood at 0.706 ± 0.033 under setting [1] and 0.678 ± 0.018 (genetic background: wild type).

Consider LLLKVEKKGSKK [HTZ1 C-terminal 12 aa], for which the protein stability index reads like this: under setting [1], 0.706 ± 0.034; (genetic background: wild type) 0.716 ± 0.041.

Regarding LLLQKSGTYLLL [ARV1 C-terminal 12 aa], the protein stability index reads like this: under setting [1], 0.639 ± 0.032; (genetic background: wild type) 0.638 ± 0.0066.

As for LLLSIFSILIVL [YPS7 C-terminal 12 aa], the protein stability index is, setting by setting: under setting [1], 0.321 ± 0.0053; (genetic background: wild type) 0.2802 ± 0.0025.

On to LLMVSVVNFVPL [YPL182C C-terminal 12 aa], for which the protein stability index reads like this: under setting [1], 0.474 ± 0.034; (genetic background: wild type) 0.479 ± 0.0093.

Take LLNDIKRRNMGR [MET28 C-terminal 12 aa]: the protein stability index is 0.6834 ± 0.0045 under setting [1] and 0.723 ± 0.12 (genetic background: wild type).

Consider LLRNGDIDTITK [COG3 C-terminal 12 aa], for which the protein stability index was determined as 0.7045 ± 0.0048 under setting [1] and 0.68 ± 0.016 (genetic background: wild type).
